Measurements taken from patent US20130102031A1.

Assays:
βNGF (human) [1] = molecular target: βNGF (human) (UniProt P01138); test: HTRF competition: test antibody titrated against biotinylated Tanezumab (Streptavidin-XL665) for cryptate-labelled βNGF, 665 nm/620 nm ratio, three parameter fit
human IL-17a (human) = molecular target: T1, human IL-17a (human) (UniProt Q16552); test: KinExA 3000 solution equilibrium, N-curve analysis; human IL-17a on beads
T1 sequence (looked up): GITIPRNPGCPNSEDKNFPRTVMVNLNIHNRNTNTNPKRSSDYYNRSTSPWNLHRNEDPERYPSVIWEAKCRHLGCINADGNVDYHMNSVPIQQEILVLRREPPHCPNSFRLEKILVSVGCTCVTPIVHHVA

βNGF (human) [2] = molecular target: βNGF (human) (UniProt P01138); test: HTRF competition; test antibody titrated against biotinylated Tanezumab for labeled βNGF

UniProt P01138, sequence (P01138 122-239 limits assumed): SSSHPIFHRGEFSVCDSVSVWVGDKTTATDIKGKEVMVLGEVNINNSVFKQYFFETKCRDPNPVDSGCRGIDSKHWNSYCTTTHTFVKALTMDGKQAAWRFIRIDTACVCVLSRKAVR

Molecule: NEG CNT (antibody)
- IC50 (βNGF (human) [1]): 4910 nM

B1: anti-IL17a antibody containing the HC lacking the CDR3 insertion (encoded by SEQ ID NO: 29) (antibody, part only; not given: light chain and constant region, V domains shown, part only)
VH: EVQLVESGGGLVQPGGSLRLSCAASGFTFSNHWMNWVRQTPGKGLEWVAAINEDGSEKYYVGSVKVRFTISRDNAKNSLYLQMNSLRVEDTAVYYCARDYYDILTDYYIHYWYFDLWGRGTLVTVSSASTKGPSVFPLAP
- Kd (human IL-17a (human)): 0.067 nM

B2: anti-NGF antibody containing the HC with a CDR1 insertion encoded by SEQ ID NO: 19 (antibody, part only; not given: light chain and constant region, V domains shown, part only)
VH: QVQLVQSGAEVKKPGSSVKVSCKASGDTFSNYATGDTFSNYAISWVRQAPGQGFEWMGGIIPIFGIANYAQKFQGRVTITADESTSTAYMELSSLRSEDTAVYYCARGPEYYDYVWGSYRYNYFDYWGQGTLVTVSS
- IC50 (βNGF (human) [1]): 181 nM
- fold more potent IC50 than the HC encoded by SEQ ID NO: 16 (βNGF (human) [2]): 6 fold
